Consider 13 molecules from patent US20190262327A1, “COMBINATION OF A BACE INHIBITOR AND AN ANTIBODY OR ANTIGEN-BINDING FRAGMENT FOR THE TREATMENT OF A DISORDER ASSOCIATED WITH THE ACCUMULATION OF AMYLOID BETA” (ASTRAZENECA AB, priority 2016, published 2019).

B1: Abet0343: optimized anti-Aβ1-42 clone from VH1:VH2:VL3 recombination library (protein)
scFv (part 1 of 2): EVQLLESGGGLVQPGGSLRLSCAASGFNFNHQVMWWVRQAPGKGLEWVSVIGKTNENIAYADSVKGRFTISRDNSKNTLYLQMNSLRAEDTAVYYCAREWMDHSRPYYYYGMDVWGQGTLVTVSS
scFv (part 2 of 2): QSVLTQPPSVSVSPGQTASITCSGHNLEDKFASWYQQKSGQSPVLVIYRDDKRPSGIPERFSASNSGHTATLTISGTQATDEADYYCSSQDTVTRVFGGGTKLTVL
modifications: left off: small tags and cut ends
notes: optimized anti-Aβ1-42 clone from VH1:VH2:VL3 recombination library
B2: Abet0383: optimized anti-Aβ1-42 clone derived from Abet0144-GL (protein)
scFv (part 1 of 2): EVQLLESGGGLVQPGGSLKLSCAASGFTFDWYPMWWVRQAPGKRLEWISVIGADNAKIAYADSVKGRFTISRDNSKNTLYLQMNSLRAEDTAVYYCAREWMGHSRPYYYYGMDVWGQGTPVTVSS
scFv (part 2 of 2): SYELTQPPSVSVSPGQTASITCSGHNLGDKFASWYQQKPGQSPVLVIYRDDKRPSGIPERFSASNSGHTATLTISGTQATDEADYYCSSQDTVTRVFGGGTKLTVL
modifications: left off: small tags and cut ends
notes: optimized anti-Aβ1-42 clone derived from Abet0144-GL
B3: Abet0372: optimized anti-Aβ1-42 clone derived from Abet0144-GL (protein)
scFv (part 1 of 2): EVQLLESGGGLVQPGGSLRLSCAASSDMFNIETMWWVRQAPGKGLEWVSVIGKGMNNVSYADSVKGRFTISRDNSKNTLYLQMNSLRAEDTAVYYCAREWMDHSRPYYYYGMDVWGQGTLVTVSS
scFv (part 2 of 2): SYELTQPPSVSVSPGQTASITCSGHNLEDKFASWYQQKPGQSPVLVIYRDDKRPSGIPERFSASNSGHTATLTISGTQATDEADYYCSSQDTVTRVFGGGTKLTVL
modifications: left off: small tags and cut ends
notes: as for B2
B4: Abet0370: optimized anti-Aβ1-42 clone derived from Abet0144-GL (protein)
scFv (part 1 of 2): EVQLLESGGGLVQPGGSLRLSCAASGFHFPMSAMWWVRQAPGKGLEWVSVIGETPERQAYADSVKGRFTISRDNSKSTLYLQMNSLRAEDTAVYYCAREWMDHSRPYYYYGMDVWGQGTLVTVSS
scFv (part 2 of 2): SYELTQPPSVSVSPGQTASITCTTPHFNSKFASWYQQKPGQSPVLVIYRDDKRPSGIPERFSASNSGHTATLTISGTQAMDEADYYCQAQDSTTRVFGGGTRLTVL
modifications: left off: small tags and cut ends
notes: as for B2
B5: Abet0378: optimized anti-Aβ1-42 clone; amber stop codon at VL position 91 read as glutamine (protein)
scFv (part 1 of 2): EVQLLESGGGLVQPGGSLRLSCAASGFPFETDIMWWVRQAPGKGLEWVSVIGTNTDNVAYADSVKGRFTISRDNSKNTLYLQMNSLRAEDTAVYYCAREWMDHSRPYYYYGMDVWGQGTLVTVSS
scFv (part 2 of 2): SYELTQPPSVSVSPGQTASITCSGHNLEDKFASWYQQKPGQSPVLVIYRDDKRPSGIPERFSASNSGHTATLTISGTQATDEADYYCSSQDTVTRVFGGGTKLTVL
modifications: left off: small tags and cut ends
notes: optimized anti-Aβ1-42 clone; amber stop codon at VL position 91 read as glutamine
B6: Abet0379: optimized anti-Aβ1-42 clone derived from Abet0144-GL (protein)
scFv (part 1 of 2): EVQLLESGGGLVQPGGSLRLSCAASGFDFAETPLWWVRQAPGERLEWVSVIGSNQNKTAYADSVKGRFTISRDNSKDTLYLQMNSLRAEDTAVYYCAREWMDHSRPYYYYGMDVWGQGTLVTVSS
scFv (part 2 of 2): QSVLTQPPSVSVSPGQTASITCSGHNLEDKFASWYQQKSGQSPVLVIYRDDKRPSGIPERFSASNSGHTATLTISGTQATDGADYYCATQDNFTRVFGGGTKLTVL
modifications: left off: small tags and cut ends
notes: as for B2
B7: Abet0368: optimized anti-Aβ1-42 clone derived from Abet0144-GL (protein)
scFv (part 1 of 2): EVQLLESGGGLVQPGGSLRLSCAASGFDFGPSPMWWVRQAPGKGLEWVSVIGKDTQNSTYADSVKGRFTISRDNSKDTLYLQMNSLKAEDTAVYYCAREWMDHSRPYYYYGMDVWGQGTLVTVSS
scFv (part 2 of 2): SYELTQPPSVSVSPGQTASITCSGHNLEDKFTSWYQQKSGQSPVLVIYRDDKRPSGIPERFSASNSGHTATLTISGAQATDEADYYCSSQDTVTRVFGGGTKLTVL
modifications: left off: small tags and cut ends
notes: as for B2
B8: Abet0374: optimized anti-Aβ1-42 clone derived from Abet0144-GL (protein)
scFv (part 1 of 2): EVQLLESGGGLVQPGGSLRLSCAASGFQFKDTPMWWVRQAPGKGLEWVSVIGDQNHKKAYADSVKGRFTISRDNSKNTLYLQMNSLRAEDTAVYYCAREWMDHSRPYYYYGMDAWGQGTLVTVSS
scFv (part 2 of 2): SYELTQPPSVSVTPGQTASITCSGHNLGGKFASWYQQKPGQSPVLVIYRDDKRPSGIPERFSASNFGHTATLTISGTQATDEADYYCSSQDTVTRVFGGGTKLTVL
modifications: left off: small tags and cut ends
notes: as for B2
B9: Abet0319: optimized anti-Aβ1-42 clone derived from Abet0144-GL (protein)
scFv (part 1 of 2): EVQLLESGGGLVQPGGSLRLSCAASVSVYNKDTMWWVRQAPGKGLEWVSVIGSSGGTTVYADSVKGRFTISRDNSKNTLYLQMNSLRAEDTAVYYCAREWMDHSRPYYYYGMDVWGQGTLVTVSS
scFv (part 2 of 2): SYELTQPPSVSVSPGQTASITCSGHNIMDKWVSWYQQKPGRSPALVIYRDDKRPSGIPERFSASNSGHTATLTISGTQATDEADYYCSSQDTVTRVFGGGTKLTVL
modifications: left off: small tags and cut ends
notes: as for B2
B10: Abet0381: optimized anti-Aβ1-42 clone derived from Abet0144-GL (protein)
scFv (part 1 of 2): EVQLLESGGGLVQPGGSLRLSCAASSPSFPRETMWWVRQAPGKGLEWVSVIGTQPNRLTYADSVKGRFTISRDNSKNTLYLQMNSLRAEDTAVYYCAREWMDHSRPYYYYGIDVWGQGTLVTVSP
scFv (part 2 of 2): SYELTQPPSVSASPGQTASITCSGHNLEDKFVSWYQQKPGQSPVLVIYRDDKRPSGIPERFSASNSGHTATLTISGTQATDEANYYCSSQDTVTRAFGGGTKLTVL
modifications: left off: small tags and cut ends
notes: as for B2
B11: Abet0344: optimized anti-Aβ1-42 clone derived from Abet0144-GL (protein)
scFv (part 1 of 2): EVQLLESGGGLVQPGGSLSLSCAASGFTFSVYTMWWVRQAPGKGLEWVSVIGGNETRKAYADSVKGRFTISRDNSKNRLYLQMNSLRAEDTAVYYCAREWMDHSRPYYYYGMDVWGQGTLVTVSS
scFv (part 2 of 2): QSVLTQPPSVSVSPGQTASITCSGHNLEDKFASWYQQKSGQSPVLVIYRDDKRPSGIPERFSASNSGHTATLTISGTQATDEADYYCATQDNFTRVFGGGTKLTVL
modifications: left off: small tags and cut ends
notes: as for B2
B12: Abet0371: optimized anti-Aβ1-42 clone derived from Abet0144-GL (protein)
scFv (part 1 of 2): EVQLSESGGGLVQPGGSLRLSCAASHDAFPFDTMWWVRQAPGKGLEWVSVIGSSGGTTVYADSVKGRFTVSRDNSKNTLYLQMNSLRAEDTAVYYCAREWMDHSRPYYYYGMDVWGQGTLVTVSS
scFv (part 2 of 2): SYELTQPPSVSVSPGQTASITCSGHNISSSWVSWYQQKPGQSPVLVIYRDDKRPSGIPERFSASNSGHTATLTISGTQATDEADYYCSSQDTVTRVFGGGTKLTVL
modifications: left off: small tags and cut ends
notes: as for B2
B13: Abet0373: optimized anti-Aβ1-42 clone derived from Abet0144-GL (protein)
scFv (part 1 of 2): EVQLLESGGGLVQPGGSLRLSCVASGFDFERSVMWWVRQAPGKRLEWVSVIGSGKTNITYADSVKGRFTISRDNSKNTLYLQMNSLRAEDTAVYYCAREWMDHSRPYYYYGMDVWGQGTLVTVSS
scFv (part 2 of 2): SYELTQPPSVSVSPGQTASITCSGHNLEDKFASWYQQKPGQSPVLVIYRDDKRPSEIPERFSASNSGHTATLTISGTQATDEADYYCSSQDTVTRVFGGGTKLTVL
modifications: left off: small tags and cut ends
notes: as for B2

T1 sequence (P05067 672-713): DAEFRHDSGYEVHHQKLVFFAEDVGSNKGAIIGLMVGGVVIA

The assay concerns the target T1, human Amyloid beta 1-42 peptide (Homo sapiens, UniProt P05067).
T1 construct: biotinylated human Amyloid beta 1-42 peptide (rpeptide, USA; cat: A1117); purchased rPeptide, USA A1117; host or cells: synthetic peptide
The assay is described as follows: Surface Plasmon Resonance kinetic profiling of purified scFv (ProteOn). Type of assay: binding. The settings on record: biotinylated human Amyloid beta 1-42 on streptavidin chip. The text has this:
Surface Plasmon Resonance was used to analyse the purified scFv clones that had shown significant improvement in binding affinity for human Amyloid beta 1-42 peptide over the parent sequence, Abet0144-GL, in the HTRF™ epitope competition assay (sections 1.3-1.6). Briefly, the ProteOn Protein Interaction Array System (BioRad, USA) was used to assess the kinetic parameters of the interaction between each purified scFv and synthetically produced human Amyloid beta 1-42 peptide. These experiments were performed essentially as described by Karlsson et al. (Karlsson et al., 1991).
The affinity of binding between each test scFv and human Amyloid beta 1-42 was estimated using assays in which biotinylated synthetic human Amyloid beta 1-42 peptide (rPeptide, USA; cat: Al 117) was non-covalently bound via a biotin/streptavidin interaction to a proprietary streptavidin chip (NTA 176-5021) at five different surface densities. The chip surface was regenerated between cycles by a single 60 second injection of 10 mM Glycine pH 2.0 to remove scFv bound to the peptide.
Each scFv at 100-200 nM was sequentially passed over the peptide surface for a sufficient amount of time to observe sensorgrams that could be fitted to an appropriate binding model with confidence. An irrelevant scFv blank was subtracted from the main dataset to reduce the impact of any buffer artefacts or non-specific binding effects. An appropriate binding model was then fitted to the data.
As for B1, the “ka” value was found to be 120000 M⁻¹ s⁻¹ and the “kd” value came to 2.25e-05 s⁻¹.

With B2, the “ka” value is 181000 M⁻¹ s⁻¹ and the “kd” value was 3.94e-05 s⁻¹.

For B3, the “ka” value amounted to 243000 M⁻¹ s⁻¹ and the “kd” value came out at 0.000176 s⁻¹.

Regarding B4, the “ka” value was 119000 M⁻¹ s⁻¹ and the “kd” value came to 7.76e-05 s⁻¹.

Consider B5, for which the “ka” value was 136000 M⁻¹ s⁻¹ and the “kd” value was 6.41e-05 s⁻¹.

Consider B6, for which the “ka” value came to 134000 M⁻¹ s⁻¹ and the “kd” value was determined as 4.39e-05 s⁻¹.

Take B7: the “ka” value is 187000 M⁻¹ s⁻¹ and the “kd” value came to 9e-05 s⁻¹.

Turning to B8, the “ka” value is 256000 M⁻¹ s⁻¹ and the “kd” value was 6.04e-05 s⁻¹.

For B9, the “ka” value worked out at 329000 M⁻¹ s⁻¹ and the “kd” value was 0.000129 s⁻¹.

On to B10, for which the “ka” value was determined as 213000 M⁻¹ s⁻¹ and the “kd” value is 5.14e-05 s⁻¹.

In the case of B11, the “ka” value is 77500 M⁻¹ s⁻¹ and the “kd” value is 5.73e-05 s⁻¹.

For B12, the “ka” value came out at 357000 M⁻¹ s⁻¹ and the “kd” value is 0.000272 s⁻¹.

For B13, the “ka” value came out at 185000 M⁻¹ s⁻¹ and the “kd” value was 8.92e-05 s⁻¹.
